Assay results: patent publication US20250011428A1 (Novartis, published 2025)

Assays:
[1] = biological target: T1, recombinant human hFcγR3a (F158V) (human, UniProt P08637 17-208); experiment: SPR max response, normalized to parental (=100)
T1 construct: also called FcγRIII
Method: (§1) Kinetics and binding capacity were measured on a BIAcore® T200 instrument (GE Healthcare, Glattbrugg, Switzerland) at room temperature, with proteins diluted in running buffer 10 mM NaP, 150 mM NaCl, 0.05% Tween 20, pH7.6. A CM5 sensor chip (Sensor Chip SA, GE Healthcare Life Sciences) was used to immobilized engineered immunoglobulins by amine coupling. Then, recombinant human hFcγR1a, or recombinant human hFcγR3a (F158V), or recombinant human hFcRn, or hC1q was used as the analyte.
(§2) Binding data were acquired by subsequent injection of analyte dilution series on the reference and measuring flow cells. Zero concentration samples (running buffer only) were included to allow double referencing during data evaluation. For data evaluation, doubled referenced sensorgrams were analyzed and the maximum response reached during the experiment was monitored. Maximum response describes the binding capacity of the surface in terms of the response at saturation. Finally, measured maximum responses were normalized to the one measured using parental immunoglobulin (not engineered).

hCD3epsilon-FC antigen [2] = biological target: T2, hCD3epsilon-FC antigen (human, UniProt P07766 23-126); experiment: SPR Biacore T200; hCD3epsilon-FC amine-coupled on CM5, IgG as analyte; set-up: unit not given here
T2 construct: immobilized by amine coupling on CM5; also called human CD3epsilon

recombinant human hFcRn = biological target: T3, recombinant human hFcRn (human, UniProt P55899 24-297; P61769 21-119); experiment: SPR Biacore T200; IgG amine-coupled on CM5, hFcRn as analyte; response normalized to parental (=100)
T3 construct: FcRn is normally a heterodimer with it
Method: as §1, §2

[3] = biological target: T4, recombinant human hFcγR1a (human, UniProt P12314 16-288, limits assumed); experiment: SPR Biacore T200; IgG amine-coupled on CM5, receptor as analyte; response normalized to parental (=100);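 also: measured at room temperature in pH 7.6 phosphate buffer with Tween 20, double-referenced sensorgrams, maximum response taken as binding capacity at saturation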
T4 construct: recombinant, analyte in SPR; also called FcγRI
Method: as §1, §2

hCD3epsilon-FC antigen [4] = biological target: T2, hCD3epsilon-FC antigen; experiment: SPR Biacore T200; hCD3epsilon-FC amine-coupled on CM5, IgG as analyte; 1:1 model, apparent KD (bivalent analyte)
Method: A CM5 sensor chip (Sensor Chip SA, GE Healthcare Life Sciences) was used to immobilize hCD3epsilon-FC antigen by amine coupling. Then, engineered anti-CD3 hIgG1 were used as the analyte.
Binding data were acquired by subsequent injection of analyte dilution series on the reference and measuring flow cells. Zero concentration samples (running buffer only) were included to allow double referencing during data evaluation. For data evaluation, doubled referenced sensorgrams were analyzed by applying a 1:1 binding model analysis to generate the equilibrium dissociation constant (KD). Binding constant described Table 7 are considered as apparent KD since immunoglobulins used as analyte are bivalent for the immobilized antigen. In addition, maximum response reached during the experiment was monitored. Maximum response describes the binding capacity of the surface in terms of the response at saturation. Finally, measured maximum responses were normalized to the one measured using parental immunoglobulin (not engineered).

hC1q = hC1q (human, UniProt P02745 23-245; P02746 28-253; P02747 29-245); experiment: SPR max response, normalized to parental (=100)
Method: as §1, §2

[5] = biological target: T1, recombinant human hFcγR3a (F158V); experiment: SPR Biacore T200; IgG amine-coupled on CM5, receptor as analyte; response normalized to parental (=100);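 also: measured at room temperature in pH 7.6 phosphate buffer with Tween 20, double-referenced sensorgrams, maximum response taken as binding capacity at saturation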
Method: as §1, §2

T2 sequence (P07766 23-126 limits assumed): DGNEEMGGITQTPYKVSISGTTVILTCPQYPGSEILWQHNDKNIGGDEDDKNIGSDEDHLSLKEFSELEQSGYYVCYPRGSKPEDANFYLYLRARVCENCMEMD
T1 sequence (P08637 17-208 F176V): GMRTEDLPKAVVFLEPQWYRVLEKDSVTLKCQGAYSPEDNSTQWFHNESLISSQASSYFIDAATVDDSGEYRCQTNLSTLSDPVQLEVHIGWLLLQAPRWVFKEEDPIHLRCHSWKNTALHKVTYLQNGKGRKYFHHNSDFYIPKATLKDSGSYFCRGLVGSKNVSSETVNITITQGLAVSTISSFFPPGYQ
T4 sequence (P12314 16-288 limits assumed): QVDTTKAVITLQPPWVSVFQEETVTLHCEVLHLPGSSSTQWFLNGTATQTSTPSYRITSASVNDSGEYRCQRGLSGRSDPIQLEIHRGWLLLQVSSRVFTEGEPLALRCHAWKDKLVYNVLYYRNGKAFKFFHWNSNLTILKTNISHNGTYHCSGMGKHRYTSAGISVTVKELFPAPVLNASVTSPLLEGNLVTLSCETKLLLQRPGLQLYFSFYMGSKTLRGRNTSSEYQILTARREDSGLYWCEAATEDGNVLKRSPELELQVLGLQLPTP
Sequence of hC1q (P02745 23-245 limits assumed, chain 1 of 3): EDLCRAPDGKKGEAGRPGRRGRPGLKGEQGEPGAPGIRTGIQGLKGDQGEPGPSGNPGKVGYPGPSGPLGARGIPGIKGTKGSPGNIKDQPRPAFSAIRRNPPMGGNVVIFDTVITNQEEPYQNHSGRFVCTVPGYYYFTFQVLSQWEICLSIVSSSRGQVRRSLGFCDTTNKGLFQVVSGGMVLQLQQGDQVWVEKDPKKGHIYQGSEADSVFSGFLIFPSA
Sequence of hC1q (P02746 28-253 limits assumed, chain 2 of 3): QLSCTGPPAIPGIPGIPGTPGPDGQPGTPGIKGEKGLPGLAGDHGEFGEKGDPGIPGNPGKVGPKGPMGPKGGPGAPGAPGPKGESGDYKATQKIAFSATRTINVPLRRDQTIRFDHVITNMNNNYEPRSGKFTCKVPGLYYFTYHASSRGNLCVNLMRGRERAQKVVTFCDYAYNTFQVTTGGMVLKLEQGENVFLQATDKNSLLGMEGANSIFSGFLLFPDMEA
Sequence of hC1q (P02747 29-245 limits assumed, chain 3 of 3): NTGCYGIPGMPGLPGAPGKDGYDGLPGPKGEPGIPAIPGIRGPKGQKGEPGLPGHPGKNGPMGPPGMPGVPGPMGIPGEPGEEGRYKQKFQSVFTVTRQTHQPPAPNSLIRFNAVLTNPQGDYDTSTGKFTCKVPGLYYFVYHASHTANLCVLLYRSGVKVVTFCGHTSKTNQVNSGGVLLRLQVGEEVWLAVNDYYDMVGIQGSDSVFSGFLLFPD
T3 sequence (P55899 24-297 limits assumed, chain 1 of 2): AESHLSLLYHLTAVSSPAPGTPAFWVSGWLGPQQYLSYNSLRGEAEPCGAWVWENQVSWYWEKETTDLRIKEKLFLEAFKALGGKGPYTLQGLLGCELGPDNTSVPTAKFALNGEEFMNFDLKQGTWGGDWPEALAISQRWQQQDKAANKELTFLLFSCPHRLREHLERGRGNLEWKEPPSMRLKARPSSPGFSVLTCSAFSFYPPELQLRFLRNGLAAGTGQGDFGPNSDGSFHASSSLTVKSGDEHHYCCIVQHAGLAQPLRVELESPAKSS
T3 sequence (P61769 21-119 limits assumed, chain 2 of 2): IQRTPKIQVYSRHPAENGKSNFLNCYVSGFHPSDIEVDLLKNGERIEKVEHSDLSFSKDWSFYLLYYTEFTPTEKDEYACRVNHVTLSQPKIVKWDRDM

Binder | binding result [1] | Maximum response at 125 nM hIgG1 (hCD3epsilon-FC antigen [2]) | Maximum response at 1840 nM hFcRn (RU) (recombinant human hFcRn) | Maximum response at 100 nM hFcγR1a (RU) [3] [RU] | Kd (hCD3epsilon-FC antigen [4]) [nM] | binding result (hC1q) | Maximum response at 300 nM hFcγR3a F158V (RU) [5] [RU]
CD3_2_YTE (antibody, human IgG1, lambda, hIgG1) heavy: EVQLVESGGGLVQPGGSLKLSCAASGFTFNTYAMNWVRQASGKGLEWVGRIRSKYNNYATYYADSVKDRFTISRDDSKSTLYLQMNSLKTEDTAVYYCVRHGNFGNSYVSWFAYWGQGTLVTVSSASTKGPSVFPLAPSSKSTSGGTAALGCLVKDYFPEPVTVSWNSGALTSGVHTFPAVLQSSGLYSLSSVVTVPSSSLGTQTYICNVNHKPSNTKVDKRVEPKSCDKTHTCPPCPAPELCCHPSVFLFPPKPKDTLYITREPEVTCVVVGLRHEDPEVKFNWYVDGVEVHNAKTKPREEQYCGCYRVVSVLTVLHQDWLNGKEYKCKVSNKALPAPIEKTISKAKGQPREPQVYTLPPSRDELTKNQVSLTCLVKGFYPSDIAVEWESNGQPENNYKTTPPVLDSDGSFFLYSKLTVDKSRWQQGNVFSCSVMHEALHNHYTQKSLSLSPGK light: QAVVTQEPSLTVSPGGTVTLTCRSSTGAVTTSNYANWVQQKPGQAPRGLIGGTNKRAPWTPARFSGSLLGDKAALTLSGAQPEDEAEYFCALWYSNLWVFGGGTKLTVLGQPKAAPSVTLFPPSSEELQANKATLVCLISDFYPGAVTVAWKADSSPVKAGVETTTPSKQSNNKYAASSYLSLTPEQWKSHRSYSCQVTHEGSTVEKTVAPTECS | no binding (tested: 300 nM hFcγR3a F158V) | 371 | 340 | 3 | 2.3 |  | 
CD3_5 (antibody, human IgG1, lambda, hIgG1) heavy: EVQLVESGGGLVQPGGSLKLSCAASGFTFNTYAMNWVRQASGKGLEWVGRIRSKYNNYATYYADSVKDRFTISRDDSKSTLYLQMNSLKTEDTAVYYCVRHGNFGNSYVSWFAYWGQGTLVTVSSASTKGPSVFPLAPSSKSTSGGTAALGCLVKDYFPEPVTVSWNSGALTSGVHTFPAVLQSSGLYSLSSVVTVPSSSLGTQTYICNVNHKPSNTKVDKRVEPKSCDKTHTCPPCPAPELCCGPSVFLFPPKPKDTLMISRTPEVTCVVVDVSHEDPEVKFNWYVDGVEVHNAKTKPREEQYCSCYRVVSVLTVLHQDWLNGKEYKCKVSNKALPAPIEKTISKAKGQPREPQVYTLPPSRDELTKNQVSLTCLVKGFYPSDIAVEWESNGQPENNYKTTPPVLDSDGSFFLYSKLTVDKSRWQQGNVFSCSVMHEALHNHYTQKSLSLSPGK light: QAVVTQEPSLTVSPGGTVTLTCRSSTGAVTTSNYANWVQQKPGQAPRGLIGGTNKRAPWTPARFSGSLLGDKAALTLSGAQPEDEAEYFCALWYSNLWVFGGGTKLTVLGQPKAAPSVTLFPPSSEELQANKATLVCLISDFYPGAVTVAWKADSSPVKAGVETTTPSKQSNNKYAASSYLSLTPEQWKSHRSYSCQVTHEGSTVEKTVAPTECS |  | 365 |  | 7 | 3.76 | no binding (tested: 20 nM hC1q) | 22
